Results on 6 compounds are retold here after patent US11733246B2, “Compositions, imaging, and therapeutic methods targeting folate receptor 1 (FOLR1)” (Indi Molecular, Inc., priority 2020, dated 2023).

The nature of one data set: in vivo. The following applies: female, NSG, mouse, iv, total radioactivity. Here is the method: (§1) Female, 7-week-old NSG mice were housed under pathogen-free conditions. Water and food were provided ad libitum. To create mice with FOLR1+ ovarian xenograft tumors, mice were injected subcutaneously with OVCAR3 cells (1×10^7 cells per mouse) resuspended in 50% Matrigel in PBS into the shoulder region. Tumor growth was monitored by caliper measurements. OVCAR3 is a human ovarian adenocarcinoma known to over-express FOLR1.
(§2) ^68Ga PET imaging was used to study in vivo biodistribution of heterobiligands in non-tumor bearing (healthy) mice and OVCAR3 tumor bearing mice. 100-200 μCi of [^68Ga]DOTA-labeled heterobiligand was administered intravenously (i.v.) via the tail vein of each mouse. Dynamic PET imaging was performed from 0-1 h, followed by acquisition of static PET images at 2 h and 4 h post-injection. CT scans were acquired for anatomical reference. Imaging was performed on an Inveon microPET/CT small animal scanner. The PET signal was quantitated by three-dimensional ROI analysis and represented as percent injected dose (% ID) vs. time ([…]) for major organs including tumor, liver, heart, lung, bladder, and kidney.
(§3) Evaluation of a folate-hshta (SEQ ID NO:6) Nterm heterobiligand bearing both an albumin binder and DOTA chelator in PET was a priority, given that DOTA can accommodate both ^68Ga for imaging and ^177Lu for radiotherapy. A 200 μCi dose of ^68Ga-labeled folate-hshta-PEG3-Lys(MPBA)-Lys(DOTA) (SEQ ID NO:6) (compound #2809) was injected i.v. via tail vein in an NSG mouse bearing s.c. human OVCAR3 (FOLR1+) tumor. ^68Ga PET/CT imaging scans were performed at 0-1 h (dynamic), 2 h (static), and 4 h (static). […] The time-course biodistribution of ^68Ga-labeled folate-hshta-PEG3-Lys(MPBA)-Lys(DOTA) (SEQ ID NO:6) (compound #2809) was calculated to quantify the uptake in major organs including the tumor (FIG. 17). […] Larger tumors (490 mm^3) were also evaluated with the ^68Ga-chelated PET probe.
(§4) Images were captured for compound #1307 at the time points 5 min, 10 min, 15 min, 30 min, 1 h, 2 h, and 4 h. PET/CT images were taken following the injection of 4 female NSG mice with ^68Ga-chelated compound #2809. […] Images for mouse 4 are shown in FIG. 23 (Compounds #1307 and #2809) and FIG. 24 (Compound #1307).
(§5) Biodistribution was initially evaluated by PET imaging, as the time frame for a significant portion of clearance is roughly similar to the time frame of PET imaging experiments. Indi ^68Ga-7327 was injected via the tail vein into OVCAR3 (FOLR+) tumor implanted female NSG mice once the tumor size reached 200 mm^3, and microPET/CT scans were acquired at 5 min, 10 min, 15 min, 30 min, 1 h, 2 h, and 4 h post-injection. PET images were corrected for CT-based photon attenuation, detector normalization and radioisotope decay and converted to units of percent injected dose per cc (% ID/cc).

A further data set addresses human serum albumin (Homo sapiens, UniProt P02768). To be noted: read-out: affinity for human serum albumin; cited from earlier work.
Another data set has as its system OVCAR3 (FOLR+) cells. The data set can be described thus: Fluorescence microscopy / live cell imaging of dye-labeled heterobiligand. Type of data set: cell-based, human. To be noted: DyLight 650 label, OVCAR3 vs PC3. The source says:
To further understand intracellular trafficking of the Nterm heterobiligand, these dye-labeled compounds were imaged by fluorescence microscopy. The cells were counterstained with BioTracker 490, which stains membranes, and Rab5a+, an endosomal stain. […] Low levels of DyLight650 was detected within PC-3 (FOLR1−) cells. Taken together, internalization of the heterobiligand appears to be receptor driven and selective for FOLR1 (+) cells.
(§6) Nonclinical studies were first conducted with Folate-hshta-PEG10-PEG10-K(Biotin), where Folate-hshta is the targeting heterobiligand, PEG10 is a deca(ethylene glycol) linker, and K(Biotin) is the detection label. […] Cross reactivity with the murine folate receptor was also observed. […] In the merged image, purple puncta were observed indicating co-localization of internalized heterobiligand with early endosomes (Rab5a+ vesicles) in OVCAR3 cells.

In another data set the test system is OVCAR3 cells. Description: Cell internalization assay (acid wash, flow cytometry). Type of data set: cell-based, human. To be noted: OVCAR3 cell line. Here is the method:
FIG. 10 is a diagram of an assay for assessing cell internalization FOLR1 heterobiligands.
The folate-hshta (SEQ ID NO:6) Nterm heterobiligand was also evaluated in cell penetration imaging assays (FIG. 10). OVCAR3 and PC-3 cells were incubated with the test article at 37° C. for 1 hour. Flow cytometry analysis of the resulting treated cells indicated strong binding to FOLR1 (+) cells. To understand the proportion bound to the surface but not internalized, the cells were briefly washed with acid to liberate the non-internalized peptide.
as §6

Data set [1] deals with OVCAR3 FOLR1+ cells. Description: Flow cytometry binding to FOLR1 (+) cells. To be noted: 40 nM of the test article. It is filed as cell-based, human.
Data set [2] deals with OVCAR3 FOLR1+ cells. Description: Flow cytometry binding to FOLR1 (+) cells. It is filed as cell-based, human. The following applies: OVCAR3 vs PC-3, flow cytometry. As to the method: Both the kyeet (SEQ ID NO:9) and hshta (SEQ ID NO:6)-derived biligands were tested by flow cytometry for binding to FOLR1 (+) and FOLR1 (−) cell lines (FIGS. 6 and 7). The human ovarian adenocarcinoma-derived cell line OVCAR3 has robust FOLR1 expression and was selected as the FOLR1 (+) cell line. The human prostate adenocarcinoma-derived cell line PC-3 was selected as a FOLR1 (−) cell line.
Competition at the cellular level was also probed.
Increasing the serum-bound fraction of the peptide may decrease first pass removal of the heterobiligand, and drive compound retention of tumor over kidney. Constructs bearing the known albumin binder 4-methylphenyl butyric acid (4-MPBA) were synthesized. These compounds were evaluated in vitro to verify binding fidelity to FOLR1. The modified heterobiligands were incubated at 400 nM with OVCAR3 and PC-3 cells for 20 minutes at 37° C. in complete media containing 20% FBS. They both bind to OVCAR3 FOLR1+ cells with similar binding affinities as the original heterobiligand studied (FIG. 14). […] Similar activity of these heterobiligands is anticipated in vivo.

Data set [3] has as its system OVCAR3 (FOLR1+) tumor bearing NSG mice. Description: in vivo. The following applies: mouse. Here is the method: as §1, §2, §3, §4, §5
The target in a further data set is human recombinant NEP (Homo sapiens, UniProt P08473). It is filed as biochemical. Here is the method:
In order to test the susceptibility of GFK and MVK linkers to NEP-mediated cleavage, the peptide (Folate-hshta-Lys(MPBA)-Gly-Phe-Lys(DOTA) (SEQ ID NO:6)) was incubated with human recombinant NEP and analyzed the solution for the presence of cleaved adducts. MALDI was utilized to monitor the cleavage of a PCC heterobiligand that contains a NEP protease recognizable sequence (G-F-K). The PCC concentration was constant and the NEP concentration was titrated down from 10 nM to 1 nM, 0.1 nM, 0.01 nM, and no NEP. The NEP-mediated cleaved adduct was identified by mass. 10 μM PCC containing the GFK linker was combined with varying amounts of NEP. […] Below 0.1 nM no cleavage was observed. • Folate-hshta-Lys(MPBA)-Gly-Phe-Lys(DOTA) (SEQ ID NO:6) • Molecular weight 2231.42
The NEP-mediated cleavage was also monitored by HPLC. In agreement with the MALDI spectra, the HPLC chromatograms show depletion of the parent brush-border heterobiligand (retention time 17.1 minutes), dose-dependent on the amount of NEP spiked into the sample (10 nM, 1 nM, 0.1 nM, 0.01 nM, and no NEP). An appearance of a new peak (retention time 16.5 minutes) in concert with the depletion of the starting material is presumed to be the cleaved folate-containing peptide.
In order to test the specificity of NEP, a non-cleavable linker (PEG3) was also assayed.
To reduce the radioactive dose to the kidney, Indi ^177Lu-7327 was constructed to incorporate a GFK linker that is susceptible to cleavage by enzymes found predominately in the kidney's brush border. These enzymes cleave off the radionuclide-chelator complex, which is quickly eliminated by the kidney for excretion in the urine. The zinc metalloprotease neprilysin (NEP) is expressed with high abundance in the kidney. […] To confirm NEP-mediated cleavage of the GFK linker in Indi 7327, the peptide was incubated with recombinant human NEP at 37° C. for 1 h and analyzed by matrix-assisted laser desorption/ionization mass spectrometry (MALDI-MS) for the evolution of cleaved adducts (FIG. 42). […] The expected cleaved adduct (mass: 1283.16 m/z) appears in the samples containing 10, 1.0, and 0.1 nM NEP. […] Below 0.1 nM NEP, no cleavage was observed. In addition to confirming the selectivity of NEP for the GFK linker, it is also important to note that the remaining portions of the Indi 7327 were impervious to the enzyme.

A short description of a further data set: Plasma stability, mouse. The following applies: CD-1, mouse, pH 7.4, Plasma Stability (t 1/2), Mu, AO construct marked (FB).
A short description of the next data set: Plasma stability, human. To be noted: pH 7.4, Plasma Stability (t 1/2), Hu, AO construct marked (FB).

Numbered stars: 1 amine (or outer) side, 2 acyl side, 3 side chain; on linkers, the order of the positions; unused ones are H or OH. Bridge positions count the residues as written; N and C are the ends. Square brackets hold non-standard residues; d marks the D form. Triazole bridges read from a SMILES are 1,4-linked. Ends that are not written are not given here. Peptide text beside a SMILES is read from it. * marks the point of attachment. DOTA = O=C(O)CN1CCN(CC(=O)O)CCN(CC(=O)*)CCN(CC(=O)O)CC1; Pteroyl = Nc1nc2ncc(CNc3ccc(C(=O)*)cc3)nc2c(=O)[nH]1; Butanoyl(4-(4-MePh)) = Cc1ccc(CCCC(=O)*)cc1; Lys(N3) = [N-]=[N+]=NCCCC[C@H](N)C(=O)O; γGlu = O=C(O)[C@H](CCC(=O)[*:2])N[*:1]; AEEEA = NCCOCCOCCOCC(=O)O; Pra = C#CC[C@H](N)C(=O)O; X2 = NOCC(=O)* Bounds are passed on as bounds.

Sequence of human recombinant NEP (P08473 whole entry): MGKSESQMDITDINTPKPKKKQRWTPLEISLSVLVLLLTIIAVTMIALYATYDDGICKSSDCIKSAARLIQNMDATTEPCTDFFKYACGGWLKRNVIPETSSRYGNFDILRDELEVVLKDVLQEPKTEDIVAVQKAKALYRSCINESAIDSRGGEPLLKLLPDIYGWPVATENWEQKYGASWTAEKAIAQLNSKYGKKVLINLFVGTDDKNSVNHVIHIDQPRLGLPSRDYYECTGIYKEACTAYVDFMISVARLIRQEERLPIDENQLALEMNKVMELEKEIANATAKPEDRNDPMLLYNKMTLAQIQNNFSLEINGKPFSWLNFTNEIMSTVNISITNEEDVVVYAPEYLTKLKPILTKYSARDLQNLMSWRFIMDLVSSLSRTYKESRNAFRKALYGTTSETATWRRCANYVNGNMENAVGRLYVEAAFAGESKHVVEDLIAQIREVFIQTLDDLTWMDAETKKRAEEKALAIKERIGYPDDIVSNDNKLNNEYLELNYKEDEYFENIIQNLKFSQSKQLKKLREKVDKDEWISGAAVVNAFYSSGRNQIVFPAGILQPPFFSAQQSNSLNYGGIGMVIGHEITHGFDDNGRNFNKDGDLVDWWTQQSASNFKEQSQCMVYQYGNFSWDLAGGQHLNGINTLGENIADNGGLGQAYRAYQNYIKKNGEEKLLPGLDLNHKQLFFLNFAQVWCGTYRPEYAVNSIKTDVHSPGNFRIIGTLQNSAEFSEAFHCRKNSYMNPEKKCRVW
Protocol for Plasma stability, human: (§7) Plasma was thawed in a 37° C. water bath. Residual clots were removed via centrifugation at 4000 rpm for 5 minutes. The pH of the plasma was adjusted to 7.4 if required. Test articles were diluted to 100 μM by diluting a 1 mM working solution (in DMSO) with 45% methanol in water. To 98 μL of plasma was added 2 μL of the 100 μM solution, resulting in 2 μM final concentration of the test article. Samples were incubated at 37° C. in a water bath. At the indicated time points (0, 10, 30, 60, 120 minutes) 100 μL of 4% H3PO4 was added followed by 800 μL of stop solution (200 ng/mL tolbutamide and 200 ng/mL labetalol in 100% acetonitrile). The samples were centrifuged and the plasma protein-free supernatant (100 μL) was subjected to LC-MS/MS analysis.
Protocol for Plasma stability, mouse: as §7

`Cc1ccc(CCCC(=O)NCCCC[C@H](NC(=O)COCCOCCOCCNC(=O)[C@@H]2CCCCn3cc(nn3)C[C@H](NC(=O)CC[C@H](NC(=O)c3ccc(NCc4cnc5nc(N)[nH]c(=O)c5n4)cc3)C(=O)O)C(=O)N[C@H](Cc3c[nH]cn3)C(=O)N[C@H](CO)C(=O)N[C@H](Cc3c[nH]cn3)C(=O)N[C@H]([C@H](C)O)C(=O)N[C@H](C)C(=O)N2)C(=O)N[C@@H](CCCCNC(=O)CN2CCN(CC(=O)O)CCN(CC(=O)O)CCN(CC(=O)O)CC2)C(N)=O)cc1` [^68Ga-chelated compound #2809, metal not drawn] ({Pteroyl-γGlu}-[Pra][dH][dS][dH][dT][dA][Lys(N3)][AEEEA]K(Butanoyl(4-(4-MePh)))K(DOTA)-NH2; triazole 1-7): the tissue uptake per volume at 4 h in the data set “in vivo” (200 uCi, dose accumulation in the tumor) is roughly 1.4 %ID/mL.
Consider “GI48-GA: albumin-binding domain, fragment of protein G from Streptococcus strain GI48 (SEQ ID NO:33) (LAEAKVLANRELDKYGVSDYYKNLINNAKTVEGVKALIDEILAA)”, for which, in the data set with human serum albumin, the Kd is 1 nM.
On to “heterobiligand labeled with DyLight 650: folate-hshta Nterm heterobiligand labeled with the dye DyLight 650 ([dH][dS][dH][dT][dA]; not fully specified (N-terminus); printed as hshta; also: labeled with DyLight 650, place not given here, heterobiligand)”, for which the “internalization / intracellular localization” value in the data set with OVCAR3 (FOLR+) cells is listed as “internalization with clear preference for early endosomes”; in the data set with OVCAR3 (FOLR+) cells (listed as DyLight650-labeled peptide-folate heterobiligand), “Selective internalization into OVCAR3 (FOLR+) cells”. For the same compound, the “internalized fraction in acid wash (pH 3.0) assay” value in the data set on OVCAR3 cells is “high percentage”.
Regarding `C[C@H](O)[C@H]1NC(=O)[C@@H](CCC(=O)O)NC(=O)[C@@H](CCC(=O)O)NC(=O)[C@@H](Cc2ccc(O)cc2)NC(=O)[C@@H](CCCCN)NC(=O)[C@@H](NC(=O)[C@H](Cc2cn(CCOCCOCCOCCNC(=O)CC[C@H](NC(=O)c3ccc(NCc4cnc5nc(N)[nH]c(=O)c5n4)cc3)C(=O)O)nn2)NC(=O)CCOCCOCCOCCOCCOCCOCCOCCOCCOCCOCCNC(=O)CCOCCOCCOCCOCCOCCOCCOCCOCCOCCOCCNC(=O)CCCC[C@@H]2SC[C@@H]3NC(=O)N[C@@H]32)Cc2cn(nn2)CCCC[C@@H](C(N)=O)NC1=O` [folate-kyeet heterobiligand], the “selectivity for FOLR1 (+) cells” value in the data set on OVCAR3 FOLR1+ cells [1] is on record as “Virtually complete selectivity”. Moreover, the “selectivity for FOLR1 (+) cells over FOLR1 (−) cells” value in the data set on OVCAR3 FOLR1+ cells [2] was “high selectivity for FOLR1 (+) cells”.
As for `C[C@H](O)[C@H]1NC(=O)[C@@H](Cc2cnc[nH]2)NC(=O)[C@@H](CO)NC(=O)[C@@H](Cc2cnc[nH]2)NC(=O)[C@@H](NC(=O)CC[C@H](NC(=O)c2ccc(NCc3cnc4nc(N)[nH]c(=O)c4n3)cc2)C(=O)O)Cc2cn(nn2)CCCC[C@@H](C(=O)NCC(=O)N[C@@H](Cc2ccccc2)C(=O)N[C@@H](CCCCNC(=O)CN2CCN(CC(=O)O)CCN(CC(=O)O)CCN(CC(=O)O)CC2)C(=O)O)NC(=O)[C@@H](C)NC1=O` [Indi ^68Ga-7327, metal not drawn] ({Pteroyl-γGlu}-[Pra][dH][dS][dH][dT][dA][Lys(N3)]GFK(DOTA)-OH; triazole 1-7), the kidney uptake entry in data set [3] was “significant reduction in kidney uptake”. Further, the tissue uptake per volume at 4 h in “in vivo” (accumulation in the tumor) amounted to 1.55 %ID/mL.
For `C[C@H](O)[C@H]1NC(=O)[C@@H](Cc2cnc[nH]2)NC(=O)[C@@H](CO)NC(=O)[C@@H](Cc2cnc[nH]2)NC(=O)[C@@H](NC(=O)CC[C@H](NC(=O)c2ccc(NCc3cnc4nc(N)[nH]c(=O)c4n3)cc2)C(=O)O)Cc2cn(nn2)CCCC[C@@H](C(=O)NCC(=O)N[C@@H](Cc2ccccc2)C(=O)N[C@@H](CCCCNC(=O)CON)C(=O)O)NC(=O)[C@@H](C)NC1=O` [compound 3303, Fol-hshta-Gly-Phe-Lys(AO)] ({Pteroyl-γGlu}-[Pra][dH][dS][dH][dT][dA][Lys(N3)]GFK(X2)-OH; triazole 1-7), in the data set with human recombinant NEP, the “in vitro Assay Data (NEP assay)” value is reported as “Cleavage of -G-F-K-”. The half-life at 2 μM was greater than 116 h in the data set “Plasma stability, mouse” and greater than 116 h in the data set “Plasma stability, human”.
